Laboratory results published in PMC4396693, “Structural Basis of Latrophilin-FLRT Interaction” (Structure(London, England:1993), 2015).
One block for each molecule: values may come before it.

B3: murine FLRT2 full ectodomain, wild type (residues 35-540) (domain or fragment)
chain: ACPSVCRCDRNFVYCNERSLTSVPLGIPEGVTVLYLHNNQINNAGFPAELHNVQSVHTVYLYGNQLDEFPMNLPKNVRVLHLQENNIQTISRAALAQLLKLEELHLDDNSISTVGVEDGAFREAISLKLLFLSKNHLSSVPVGLPVDLQELRVDENRIAVISDMAFQNLTSLERLIVDGNLLTNKGIAEGTFSHLTKLKEFSIVRNSLSHPPPDLPGTHLIRLYLQDNQINHIPLTAFANLRKLERLDISNNQLRMLTQGVFDHLSNLKQLTARNNPWFCDCSIKWVTEWLKYIPSSLNVRGFMCQGPEQVRGMAVRELNMNLLSCPTTTPGLPVFTPAPSTVSPTTQSPTLSVPSPSRGSVPPAPTPSKLPTIPDWDGRERVTPPISERIQLSIHFVNDTSIQVSWLSLFTVMAYKLTWVKMGHSLVGGIVQERIVSGEKQHLSLVNLEPRSTYRICLVPLDAFNYRTVEDTICSEATTHASYLNNGSNTASSHEQTTSHSMGSP

Experiments:
[1] = target: murine FLRT2 full ectodomain, wild type (residues 35-540) (murine) (UniProt Q8BLU0); experiment: SPR; one or the other of the two set-ups (FLRT2 ectodomain on CM5 with LPHN3 Olf as analyte, or LPHN3^Lec-Olf on streptavidin with FLRT2 ectodomain as analyte); the text does not say which value belongs to which; 25°C, PBS pH 7.5
[2] = target: T1, murine LPHN3 olfactomedin domain (LPHN3^Olf, residues 202-463) (murine, UniProt Q80TS3 202-463); experiment: SPR
T1 chain: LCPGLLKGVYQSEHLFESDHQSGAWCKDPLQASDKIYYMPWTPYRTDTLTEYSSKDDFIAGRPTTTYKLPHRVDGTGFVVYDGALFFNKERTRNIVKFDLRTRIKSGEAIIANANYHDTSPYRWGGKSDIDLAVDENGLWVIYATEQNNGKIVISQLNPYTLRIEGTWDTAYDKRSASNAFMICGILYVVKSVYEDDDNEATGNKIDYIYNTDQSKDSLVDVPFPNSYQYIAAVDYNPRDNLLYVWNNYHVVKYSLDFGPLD

[3] = target: T2, murine FLRT2 full ectodomain, wild type (residues 35-540) (murine, UniProt Q8BLU0 35-540); experiment: SPR; FLRT2 ectodomains (wild type, UF, FF) amine-coupled to a CM5 Biacore chip, LPHN3 Olf domain injected as analyte; equilibrium, 25°C, PBS pH 7.5, 0.005% polysorbate 20; 1:1 model; details: both partners purified
T2 construct: Fibronectin leucine-rich repeat transmembrane protein 2 (FLRT2), mouse, full-length ectodomain, residues 35-540; also called FLRT2 ectodomain; source: HEK293S GlnTI- cells, transiently expressed
T2 sequence (looked up): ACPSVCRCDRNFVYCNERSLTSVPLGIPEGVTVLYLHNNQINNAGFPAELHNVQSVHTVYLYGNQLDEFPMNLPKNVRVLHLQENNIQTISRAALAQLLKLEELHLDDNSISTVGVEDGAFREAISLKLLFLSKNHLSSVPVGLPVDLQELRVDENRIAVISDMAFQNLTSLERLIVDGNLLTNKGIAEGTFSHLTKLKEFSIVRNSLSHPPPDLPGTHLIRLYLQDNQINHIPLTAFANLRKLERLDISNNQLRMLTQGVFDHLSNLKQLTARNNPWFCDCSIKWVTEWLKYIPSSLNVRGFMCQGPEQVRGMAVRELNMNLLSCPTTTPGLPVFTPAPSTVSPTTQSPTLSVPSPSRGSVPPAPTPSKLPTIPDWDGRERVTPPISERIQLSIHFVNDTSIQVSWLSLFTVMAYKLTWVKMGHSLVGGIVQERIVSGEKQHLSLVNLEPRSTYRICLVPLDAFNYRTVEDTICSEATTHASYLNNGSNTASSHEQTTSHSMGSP

[4] = target: T3, murine LPHN3 olfactomedin domain (LPHN3^Olf, residues 202-463), Q80TS3; experiment: SPR; details: chain shown with the change
T3 chain: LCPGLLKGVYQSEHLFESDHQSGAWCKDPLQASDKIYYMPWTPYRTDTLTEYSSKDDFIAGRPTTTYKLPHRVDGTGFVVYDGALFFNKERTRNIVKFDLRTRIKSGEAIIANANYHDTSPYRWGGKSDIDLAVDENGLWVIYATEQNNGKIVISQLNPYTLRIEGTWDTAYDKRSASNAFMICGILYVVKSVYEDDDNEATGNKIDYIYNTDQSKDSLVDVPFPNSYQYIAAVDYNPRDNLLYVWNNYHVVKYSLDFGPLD

[5] = target: T2, murine FLRT2 full ectodomain, wild type …; experiment: SPR; biotinylated wild-type or mutant LPHN3^Lec-Olf on streptavidin-coated Biacore chips, FLRT2 ectodomain injected as analyte; equilibrium, 25°C, PBS pH 7.5, 0.005% polysorbate 20; 1:1 model; details: both partners purified
[6] = target: B3; experiment: SPR
[7] = maximum response at the highest LPHN3 Olf concentration plotted (about 2 µM), parent: est. 390, read off a plot

Molecule: murine FLRT2 full ectodomain, wild type (residues 35-540) (from UniProt Q8BLU0) FF
response [2, 7]: -0 RU

B1: murine LPHN3 olfactomedin domain (LPHN3^Olf, residues 202-463) (domain or fragment, UniProt Q80TS3 202-463, looked up)
chain: LCPGLLKGVYQSEHLFESDHQSGAWCKDPLQASDKIYYMPWTPYRTDTLTEYSSKDDFIAGRPTTTYKLPHRVDGTGFVVYDGALFFNKERTRNIVKFDLRTRIKSGEAIIANANYHDTSPYRWGGKSDIDLAVDENGLWVIYATEQNNGKIVISQLNPYTLRIEGTWDTAYDKRSASNAFMICGILYVVKSVYEDDDNEATGNKIDYIYNTDQSKDSLVDVPFPNSYQYIAAVDYNPRDNLLYVWNNYHVVKYSLDFGPLD
notes: Latrophilin 3 (LPHN3), mouse, olfactomedin-like domain, residues 202-463; also called LPHN3 Olf domain; olfactomedin domain of murine LPHN3; source: kifunensine-treated HEK293T cells, transiently expressed, purified
binding result [3]: binds

Molecule: B3
Kd [2]: 40 nM

B4: murine LPHN3^Lec-Olf, wild type, biotinylated at a C-terminal Avi-Tag (domain or fragment, UniProt Q80TS3 92-463, looked up)
chain: PIPMAVVRRELSCESYPIELRCPGTDVIMIESANYGRTDDKICDSDPAQMENIRCYLPDAYKIMSQRCNNRTQCAVVAGPDVFPDPCPGTYKYLEVQYECVPYKVEQKVFLCPGLLKGVYQSEHLFESDHQSGAWCKDPLQASDKIYYMPWTPYRTDTLTEYSSKDDFIAGRPTTTYKLPHRVDGTGFVVYDGALFFNKERTRNIVKFDLRTRIKSGEAIIANANYHDTSPYRWGGKSDIDLAVDENGLWVIYATEQNNGKIVISQLNPYTLRIEGTWDTAYDKRSASNAFMICGILYVVKSVYEDDDNEATGNKIDYIYNTDQSKDSLVDVPFPNSYQYIAAVDYNPRDNLLYVWNNYHVVKYSLDFGPLD
modifications: biotin on the C-terminal Avi-Tag (enzymatic)
notes: Latrophilin 3 (LPHN3), mouse, lectin and olfactomedin-like domains; residues 92-463 are stated for the crystallization construct; Limits 92-463 are printed for the crystallization construct; the limits of the Avi-tagged construct may be in the Supplemental Experimental Procedures; also called LPHN^Lec-Olf; not shown: Avi-Tag, C-terminal, kept
binding result [5]: binds
Kd [6]: 18 nM

B6: murine LPHN3^Lec-Olf mutant LPHN3^LF(3) (T267N+K269T), biotinylated at a C-terminal Avi-Tag (domain or fragment, UniProt Q80TS3 92-463, looked up)
chain: PIPMAVVRRELSCESYPIELRCPGTDVIMIESANYGRTDDKICDSDPAQMENIRCYLPDAYKIMSQRCNNRTQCAVVAGPDVFPDPCPGTYKYLEVQYECVPYKVEQKVFLCPGLLKGVYQSEHLFESDHQSGAWCKDPLQASDKIYYMPWTPYRTDTLTEYSSKDDFIAGRPTTNYTLPHRVDGTGFVVYDGALFFNKERTRNIVKFDLRTRIKSGEAIIANANYHDTSPYRWGGKSDIDLAVDENGLWVIYATEQNNGKIVISQLNPYTLRIEGTWDTAYDKRSASNAFMICGILYVVKSVYEDDDNEATGNKIDYIYNTDQSKDSLVDVPFPNSYQYIAAVDYNPRDNLLYVWNNYHVVKYSLDFGPLD
modifications: biotin on the C-terminal Avi-Tag (enzymatic)
notes: Latrophilin 3 (LPHN3), mouse, lectin and olfactomedin-like domains; residues 92-463 are stated for the crystallization construct; artificial N-linked glycosylation site; not shown: Avi-Tag, C-terminal, kept
binding result [5]: binds

Other lines, results leading:

Kd [1]: 18 to 40 nM
Molecule: wild-type LPHN3 proteins

Kd ([4]; FLRT2 ectodomains immobilized on a CM5 Biacore chip, LPHN3 olfactomedin domain injected as analyte, 1:1 binding model, parent: 40 nM): 15 nM
response [4, 7]: 390 RU
B2: murine FLRT2 full ectodomain, wild type (residues 35-540), Q8BLU0 UF (protein)
chain: ACPSVCRCDRNFVYCNERSLTSVPLGIPEGVTVLYLHNNQINNAGFPAELHNVQSVHTVYLYGNQLDEFPMNLPKNVRVLHLQENNIQTISRAALAQLLKLEELHLDDNSISTVGVEDGAFREAISLKLLFLSKNNLSSVPVGLPVDLQELRVDENRIAVISDMAFQNLTSLERLIVDGNLLTNKGIAEGTFSHLTKLKEFSIVRNSLSHPPPDLPGTHLIRLYLQDNQINHIPLTAFANLRKLERLDISNNQLRMLTQGVFDHLSNLKQLTARNNPWFCDCSIKWVTEWLKYIPSSLNVRGFMCQGPEQVRGMAVRELNMNLLSCPTTTPGLPVFTPAPSTVSPTTQSPTLSVPSPSRGSVPPAPTPSKLPTIPDWDGRERVTPPISERIQLSIHFVNDTSIQVSWLSLFTVMAYKLTWVKMGHSLVGGIVQERIVSGEKQHLSLVNLEPRSTYRICLVPLDAFNYRTVEDTICSEATTHASYLNNGSNTASSHEQTTSHSMGSP

binding result [5]: binds
B5: murine LPHN3^Lec-Olf mutant LPHN3^LF(4) (P244N+R246T), biotinylated at a C-terminal Avi-Tag (domain or fragment, UniProt Q80TS3 92-463, looked up)
chain: PIPMAVVRRELSCESYPIELRCPGTDVIMIESANYGRTDDKICDSDPAQMENIRCYLPDAYKIMSQRCNNRTQCAVVAGPDVFPDPCPGTYKYLEVQYECVPYKVEQKVFLCPGLLKGVYQSEHLFESDHQSGAWCKDPLQASDKIYYMPWTNYTTDTLTEYSSKDDFIAGRPTTTYKLPHRVDGTGFVVYDGALFFNKERTRNIVKFDLRTRIKSGEAIIANANYHDTSPYRWGGKSDIDLAVDENGLWVIYATEQNNGKIVISQLNPYTLRIEGTWDTAYDKRSASNAFMICGILYVVKSVYEDDDNEATGNKIDYIYNTDQSKDSLVDVPFPNSYQYIAAVDYNPRDNLLYVWNNYHVVKYSLDFGPLD
modifications: biotin on the C-terminal Avi-Tag (enzymatic)
notes: as for B6
